Reference: article PMC8878330 (Molecules, 2022)

Assays:
[1] = target: T1, New Delhi metallo-β-lactamase-1 (NDM-1) (Klebsiella pneumoniae, UniProt C7C422); test: steady-state hydrolysis kinetics with purified NDM-1 (Km); assay type: biochemical
T1 construct: gene blaNDM-1

[2] = target: T1, New Delhi metallo-β-lactamase-1 (NDM-1); test: biochemical
[3] = test system: C[C@@H](O)[C@H]1C(=O)N2C(C(=O)O)=C(SCCN=CN)C[C@H]12; test: steady-state hydrolysis kinetics with purified NDM-1 (Km); assay type: biochemical, Klebsiella pneumoniae; conditions: Zn2+ (two Zn ions)
[4] = test system: CO/N=C(\C(=O)N[C@@H]1C(=O)N2C(C(=O)O)=C(COC(C)=O)CS[C@H]12)c1csc(N)n1; test: as above; assay type: biochemical, Klebsiella pneumoniae; conditions: Zn2+ (two Zn ions)
[5] = test system: CC1(C)S[C@@H]2[C@H](NC(=O)[C@H](N)c3ccccc3)C(=O)N2[C@H]1C(=O)O; test: as above; assay type: biochemical, Klebsiella pneumoniae; conditions: Zn2+ (two Zn ions)
[6] = test system: C[C@@H](O)[C@H]1C(=O)N2C(C(=O)O)=C(S[C@@H]3CN[C@H](C(=O)N(C)C)C3)[C@H](C)[C@H]12; test: as above; assay type: biochemical, Klebsiella pneumoniae; conditions: Zn2+ (two Zn ions)

T1 sequence (C7C422 29-270 limits assumed): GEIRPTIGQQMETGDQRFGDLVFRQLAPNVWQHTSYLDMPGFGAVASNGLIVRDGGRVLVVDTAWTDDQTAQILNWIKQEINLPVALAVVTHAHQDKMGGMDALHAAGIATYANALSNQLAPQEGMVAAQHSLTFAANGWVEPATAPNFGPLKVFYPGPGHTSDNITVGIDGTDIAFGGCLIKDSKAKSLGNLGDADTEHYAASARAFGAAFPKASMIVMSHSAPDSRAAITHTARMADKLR

O=C(Cc1cccs1)N[C@@H]1C(=O)N2C(C(=O)O)=C(/C=C/c3ccc([N+](=O)[O-])cc3[N+](=O)[O-])CS[C@H]12 [nitrocefin]
Km [1]: 23.2 ± 1.7 µM

O=P(O)(O)C(O)(Cc1cccnc1)P(=O)(O)O [risedronate]
IC50 [2]: 24.6 µM

New Delhi metallo-β-lactamase-1 (NDM-1) (Klebsiella pneumoniae)
Km [3]: 75.9 ± 2.9 µM
Vmax [3]: 91 µM/min
kcat [3]: 758 ± 18.6 s⁻¹
kcat/Km [3]: 9.99e+06 ± 450000 M⁻¹ s⁻¹
Km [4]: 54.8 ± 3.7 µM
Vmax [4]: 45.1 µM/min
kcat [4]: 375 ± 17.5 s⁻¹
kcat/Km [4]: 6.85e+06 ± 560000 M⁻¹ s⁻¹
Km [5]: 96.5 ± 3.1 µM
Vmax [5]: 44.9 µM/min
kcat [5]: 375 ± 14.3 s⁻¹
kcat/Km [5]: 3.88e+06 ± 190000 M⁻¹ s⁻¹
Km [6]: 52.8 ± 3.4 µM
Vmax [6]: 38.6 µM/min
kcat [6]: 322 ± 11.7 s⁻¹
kcat/Km [6]: 6.1e+06 ± 450000 M⁻¹ s⁻¹
